# Target: Fc-tagged CD147 (UniProt P35613)
# Sequence of UniProt P35613 (P35613 138-325): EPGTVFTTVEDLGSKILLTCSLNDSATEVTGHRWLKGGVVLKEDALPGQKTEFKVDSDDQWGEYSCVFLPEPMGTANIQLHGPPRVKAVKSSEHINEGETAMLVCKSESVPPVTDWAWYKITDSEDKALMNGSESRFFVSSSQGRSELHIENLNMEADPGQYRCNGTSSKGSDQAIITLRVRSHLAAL
substance,measurement,value
recombinant human cyclophilin B (from UniProt P23284 34-216) (natural protein),"SARS-CoV-2 uptake by human monocytes (N protein RNA by RT-qPCR, 24 hpi) after pretreatment with recombinant human CypA and CypB together (each 10 µg/ml) as a decoy; CD147 endogenous on the monocytes (fold decrease)",2.7
